Biological target: MetCb purified individually (Aminobacter sp. strain NyZ550)
Experiment: not stated; purified MetCb alone in solution; experiment not described

“MetCb purified individually (natural protein)” gave a stoichiometry N of 6.

— article PMC11271267
